# Source: patent US20230000771A1 (WISCONSIN ALUMNI RESEARCH FOUNDATION, published 2023)
# Where no end group is shown, it is not given here.
# Key:
# PD-L1 (SPR target) [1] = biological target: T1, PD-L1 (SPR target) (UniProt Q9NZQ7 19-238, limits assumed); experiment: SPR; drawn table under the sensorgrams, column KD
# T1 construct: also called PD-L1/CD274
# PD-L1 (SPR target) [2] = biological target: T1, PD-L1 (SPR target); experiment: SPR; drawn table under the sensorgrams, column Ka
# PD-L1 (SPR target) [3] = biological target: T1, PD-L1 (SPR target); experiment: SPR; drawn table under the sensorgrams, column Kd
# PD-L1 (SPR target) [4] = biological target: T1, PD-L1 (SPR target); experiment: SPR
# T1 sequence (Q9NZQ7 19-238 limits assumed): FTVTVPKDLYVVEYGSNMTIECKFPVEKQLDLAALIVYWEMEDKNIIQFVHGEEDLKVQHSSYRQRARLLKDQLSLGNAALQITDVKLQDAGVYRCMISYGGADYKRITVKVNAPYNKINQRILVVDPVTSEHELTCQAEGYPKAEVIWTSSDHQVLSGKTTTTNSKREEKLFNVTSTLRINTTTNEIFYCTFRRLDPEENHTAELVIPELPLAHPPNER
Binder,Kd (PD-L1 (SPR target) [1]) [nM],kon (PD-L1 (SPR target) [2]) [M⁻¹ s⁻¹],koff (PD-L1 (SPR target) [3]) [s⁻¹],strength of KD relative to free peptide (pPD1) (PD-L1 (SPR target) [4]) [fold]
"aPD-L1 (full anti-PD-L1 antibody) (antibody, V domains shown) VH: EVQLLESGGGLVQPGGSLSLSCAASGFSFSSGYDMCWVRQAPGKGLEWIACIAAGSAGITYDANWAKGRFTISRDNSKNTLYLQMNSLRAEDTAVYYCARSAFSFDYAMDLWGQGTLVTVSS VL: DIQMTQSPSTLSASVGDRVTITCQASQSISSHLNWYQQKPGKAPKLLIYKASTLASGVPSRFSGSGSGTEFTLTISSLQPDDFATYYCQQGYSWGNVDNVFGGGTKVTVL",2.09,583000,0.00122,–
"HVVWHRESPSGQTDTLAA (other, not fully specified (C-terminus); also: conjugated to G7 PAMAM dendrimer, attachment site and number per dendrimer not given here, Multivalent conjugate; Only the peptide part is a polypeptide; also called dendrimer-pPD-1; dendrimer-peptide conjugates) [dendrimer-peptide conjugate G7-pPD1 (pPD-1 peptides conjugated to PAMAM dendrimer)]",2.75,252000,0.000693,~100000
"HVVWHRESPSGQTDTLAA (not fully specified (C-terminus), also called free pPD-1) [PD-L1-binding peptide (pPD-1), free peptide]",119000,–,0.127,–
